# Patent publication US20220227830A1, “QD DOSING OF GIP RECEPTOR AGONIST PEPTIDE COMPOUNDS AND USES THEREOF” (Takeda Pharmaceutical Company Limited, priority 2020, published 2022)
# Starred links: 1 amine or outer side, 2 acyl side, 3 side chain; linkers in the order of their positions; H or OH if unused. Non-standard residues stand in square brackets, D forms with d. Groups on a side chain read outwards from the residue. No end group written: not given here. *: point of attachment. 2OEGgE‑C16DA = O=C(O)CCCCCCCCCCCCCCC(=O)N[C@@H](CCC(=O)NCCOCCOCC(=O)NCCOCCOCC(=O)*)C(=O)O; C15 diacid = O=C(O)CCCCCCCCCCCCCC(=O)*; γGlu = O=C(O)[C@H](CCC(=O)[*:2])N[*:1]; NMeY = CN[C@@H](Cc1ccc(O)cc1)C(=O)O; AEEA = NCCOCCOCC(=O)O; Aib = CC(C)(N)C(=O)O
# B1: Compound 125 (peptide)
# peptide: [NMeY][Aib]EGTFISDYSIAK([Gly-Gly-Gly-Gly-Gly-γGlu-C15 diacid])DR[Aib]AQ[Aib]NFVNWLLAQSPSSGAPPPS-NH2
# modifications: N-terminus assumed
# SMILES: CC[C@H](C)[C@H](NC(=O)[C@H](CO)NC(=O)[C@H](Cc1ccc(O)cc1)NC(=O)[C@H](CC(=O)O)NC(=O)[C@H](CO)NC(=O)[C@@H](NC(=O)[C@H](Cc1ccccc1)NC(=O)[C@@H](NC(=O)CNC(=O)[C@H](CCC(=O)O)NC(=O)C(C)(C)NC(=O)[C@H](Cc1ccc(O)cc1)NC)[C@@H](C)O)[C@@H](C)CC)C(=O)N[C@@H](C)C(=O)N[C@@H](CCCCNC(=O)CNC(=O)CNC(=O)CNC(=O)CNC(=O)CNC(=O)CC[C@H](NC(=O)CCCCCCCCCCCCCC(=O)O)C(=O)O)C(=O)N[C@@H](CC(=O)O)C(=O)N[C@@H](CCCNC(=N)N)C(=O)NC(C)(C)C(=O)N[C@@H](C)C(=O)N[C@@H](CCC(N)=O)C(=O)NC(C)(C)C(=O)N[C@@H](CC(N)=O)C(=O)N[C@@H](Cc1ccccc1)C(=O)N[C@H](C(=O)N[C@@H](CC(N)=O)C(=O)N[C@@H](Cc1c[nH]c2ccccc12)C(=O)N[C@@H](CC(C)C)C(=O)N[C@@H](CC(C)C)C(=O)N[C@@H](C)C(=O)N[C@@H](CCC(N)=O)C(=O)N[C@@H](CO)C(=O)N1CCC[C@H]1C(=O)N[C@@H](CO)C(=O)N[C@@H](CO)C(=O)NCC(=O)N[C@@H](C)C(=O)N1CCC[C@H]1C(=O)N1CCC[C@H]1C(=O)N1CCC[C@H]1C(=O)N[C@@H](CO)C(N)=O)C(C)C
# B2: Compound 128 (peptide)
# peptide: [NMeY][Aib]EGTFISDYSI[Aib]K([AEEA-AEEA-γGlu-C15 diacid])DR[Aib]AQ[Aib]DFVNWLLAQRPSSGAPPPS-NH2
# modifications: N-terminus assumed
# SMILES: CC[C@H](C)[C@H](NC(=O)[C@H](Cc1ccccc1)NC(=O)[C@@H](NC(=O)CNC(=O)[C@H](CCC(=O)O)NC(=O)C(C)(C)NC(=O)[C@H](Cc1ccc(O)cc1)NC)[C@@H](C)O)C(=O)N[C@@H](CO)C(=O)N[C@@H](CC(=O)O)C(=O)N[C@@H](Cc1ccc(O)cc1)C(=O)N[C@@H](CO)C(=O)N[C@H](C(=O)NC(C)(C)C(=O)N[C@@H](CCCCNC(=O)COCCOCCNC(=O)COCCOCCNC(=O)CC[C@H](NC(=O)CCCCCCCCCCCCCC(=O)O)C(=O)O)C(=O)N[C@@H](CC(=O)O)C(=O)N[C@@H](CCCNC(=N)N)C(=O)NC(C)(C)C(=O)N[C@@H](C)C(=O)N[C@@H](CCC(N)=O)C(=O)NC(C)(C)C(=O)N[C@@H](CC(=O)O)C(=O)N[C@@H](Cc1ccccc1)C(=O)N[C@H](C(=O)N[C@@H](CC(N)=O)C(=O)N[C@@H](Cc1c[nH]c2ccccc12)C(=O)N[C@@H](CC(C)C)C(=O)N[C@@H](CC(C)C)C(=O)N[C@@H](C)C(=O)N[C@@H](CCC(N)=O)C(=O)N[C@@H](CCCNC(=N)N)C(=O)N1CCC[C@H]1C(=O)N[C@@H](CO)C(=O)N[C@@H](CO)C(=O)NCC(=O)N[C@@H](C)C(=O)N1CCC[C@H]1C(=O)N1CCC[C@H]1C(=O)N1CCC[C@H]1C(=O)N[C@@H](CO)C(N)=O)C(C)C)[C@@H](C)CC
# B3: Compound 127 (peptide)
# peptide: [NMeY][Aib]EGTFISDYSIALDRK([AEEA-AEEA-γGlu-C15 diacid])AQ[Aib]NFVNWLLAQSPSSGAPPPS-NH2
# modifications: N-terminus assumed
# SMILES: CC[C@H](C)[C@H](NC(=O)[C@H](CO)NC(=O)[C@H](Cc1ccc(O)cc1)NC(=O)[C@H](CC(=O)O)NC(=O)[C@H](CO)NC(=O)[C@@H](NC(=O)[C@H](Cc1ccccc1)NC(=O)[C@@H](NC(=O)CNC(=O)[C@H](CCC(=O)O)NC(=O)C(C)(C)NC(=O)[C@H](Cc1ccc(O)cc1)NC)[C@@H](C)O)[C@@H](C)CC)C(=O)N[C@@H](C)C(=O)N[C@@H](CC(C)C)C(=O)N[C@@H](CC(=O)O)C(=O)N[C@@H](CCCNC(=N)N)C(=O)N[C@@H](CCCCNC(=O)COCCOCCNC(=O)COCCOCCNC(=O)CC[C@H](NC(=O)CCCCCCCCCCCCCC(=O)O)C(=O)O)C(=O)N[C@@H](C)C(=O)N[C@@H](CCC(N)=O)C(=O)NC(C)(C)C(=O)N[C@@H](CC(N)=O)C(=O)N[C@@H](Cc1ccccc1)C(=O)N[C@H](C(=O)N[C@@H](CC(N)=O)C(=O)N[C@@H](Cc1c[nH]c2ccccc12)C(=O)N[C@@H](CC(C)C)C(=O)N[C@@H](CC(C)C)C(=O)N[C@@H](C)C(=O)N[C@@H](CCC(N)=O)C(=O)N[C@@H](CO)C(=O)N1CCC[C@H]1C(=O)N[C@@H](CO)C(=O)N[C@@H](CO)C(=O)NCC(=O)N[C@@H](C)C(=O)N1CCC[C@H]1C(=O)N1CCC[C@H]1C(=O)N1CCC[C@H]1C(=O)N[C@@H](CO)C(N)=O)C(C)C
# B4: Compound 118 (peptide)
# peptide: [NMeY][Aib]EGTFISDYSI[Aib]LDR[Aib]K([AEEA-AEEA-γGlu-C15 diacid])Q[Aib]DFVNWLLAQR-NH2
# modifications: N-terminus assumed
# SMILES: CC[C@H](C)[C@H](NC(=O)[C@H](Cc1ccccc1)NC(=O)[C@@H](NC(=O)CNC(=O)[C@H](CCC(=O)O)NC(=O)C(C)(C)NC(=O)[C@H](Cc1ccc(O)cc1)NC)[C@@H](C)O)C(=O)N[C@@H](CO)C(=O)N[C@@H](CC(=O)O)C(=O)N[C@@H](Cc1ccc(O)cc1)C(=O)N[C@@H](CO)C(=O)N[C@H](C(=O)NC(C)(C)C(=O)N[C@@H](CC(C)C)C(=O)N[C@@H](CC(=O)O)C(=O)N[C@@H](CCCNC(=N)N)C(=O)NC(C)(C)C(=O)N[C@@H](CCCCNC(=O)COCCOCCNC(=O)COCCOCCNC(=O)CC[C@H](NC(=O)CCCCCCCCCCCCCC(=O)O)C(=O)O)C(=O)N[C@@H](CCC(N)=O)C(=O)NC(C)(C)C(=O)N[C@@H](CC(=O)O)C(=O)N[C@@H](Cc1ccccc1)C(=O)N[C@H](C(=O)N[C@@H](CC(N)=O)C(=O)N[C@@H](Cc1c[nH]c2ccccc12)C(=O)N[C@@H](CC(C)C)C(=O)N[C@@H](CC(C)C)C(=O)N[C@@H](C)C(=O)N[C@@H](CCC(N)=O)C(=O)N[C@@H](CCCNC(=N)N)C(N)=O)C(C)C)[C@@H](C)CC
# B5: Compound 126 (peptide)
# peptide: [NMeY][Aib]EGTFISDYSIAK([Gly-Gly-Gly-Gly-Gly-γGlu-C15 diacid])DR[Aib]AQ[Aib]DFVNWLLAQRPSSGAPPPS-NH2
# modifications: N-terminus assumed
# SMILES: CC[C@H](C)[C@H](NC(=O)[C@H](CO)NC(=O)[C@H](Cc1ccc(O)cc1)NC(=O)[C@H](CC(=O)O)NC(=O)[C@H](CO)NC(=O)[C@@H](NC(=O)[C@H](Cc1ccccc1)NC(=O)[C@@H](NC(=O)CNC(=O)[C@H](CCC(=O)O)NC(=O)C(C)(C)NC(=O)[C@H](Cc1ccc(O)cc1)NC)[C@@H](C)O)[C@@H](C)CC)C(=O)N[C@@H](C)C(=O)N[C@@H](CCCCNC(=O)CNC(=O)CNC(=O)CNC(=O)CNC(=O)CNC(=O)CC[C@H](NC(=O)CCCCCCCCCCCCCC(=O)O)C(=O)O)C(=O)N[C@@H](CC(=O)O)C(=O)N[C@@H](CCCNC(=N)N)C(=O)NC(C)(C)C(=O)N[C@@H](C)C(=O)N[C@@H](CCC(N)=O)C(=O)NC(C)(C)C(=O)N[C@@H](CC(=O)O)C(=O)N[C@@H](Cc1ccccc1)C(=O)N[C@H](C(=O)N[C@@H](CC(N)=O)C(=O)N[C@@H](Cc1c[nH]c2ccccc12)C(=O)N[C@@H](CC(C)C)C(=O)N[C@@H](CC(C)C)C(=O)N[C@@H](C)C(=O)N[C@@H](CCC(N)=O)C(=O)N[C@@H](CCCNC(=N)N)C(=O)N1CCC[C@H]1C(=O)N[C@@H](CO)C(=O)N[C@@H](CO)C(=O)NCC(=O)N[C@@H](C)C(=O)N1CCC[C@H]1C(=O)N1CCC[C@H]1C(=O)N1CCC[C@H]1C(=O)N[C@@H](CO)C(N)=O)C(C)C
# Assays:
# [1] = target: full-length human GLP-1R with an N-terminal FLAG tag (human, UniProt P43220 24-463); assay: cell-based or functional assay
# [2] = target: T1, full-length human GIPR with an N-terminal FLAG tag (human, UniProt P48546 22-466); assay: cell-based or functional assay
# T1 sequence (looked up): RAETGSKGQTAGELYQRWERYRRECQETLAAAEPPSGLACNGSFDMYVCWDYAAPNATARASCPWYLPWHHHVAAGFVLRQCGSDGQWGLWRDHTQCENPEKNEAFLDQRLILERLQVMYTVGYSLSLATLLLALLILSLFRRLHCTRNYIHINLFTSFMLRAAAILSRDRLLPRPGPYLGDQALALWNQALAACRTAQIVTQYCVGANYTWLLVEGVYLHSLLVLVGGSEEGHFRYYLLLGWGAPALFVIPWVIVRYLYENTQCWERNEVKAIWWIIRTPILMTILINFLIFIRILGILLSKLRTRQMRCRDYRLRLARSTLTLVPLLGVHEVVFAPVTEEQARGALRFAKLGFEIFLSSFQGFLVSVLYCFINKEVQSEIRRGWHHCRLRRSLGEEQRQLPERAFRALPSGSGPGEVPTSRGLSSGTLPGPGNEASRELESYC
Binder,Human GLP1R cAMP HEK293T EC50 [1],"Human GIPR cAMP, HEK293T EC50 [2]"
[NMeY][Aib]EGTFISDYSI[Aib]LDR[Aib]AQ[Aib]NFVNWLLAQKPSSGAPPPS-NH2 (not fully specified (residue 30)) [Compound 123],22.9 nM,0.0004 nM
B1,166 nM,0.0002 nM
[NMeY][Aib]EGTFISDYSI[Aib]LDRKAQ[Aib]NFVNWLLAQRPSSGAPPPS-NH2 (not fully specified (residue 17)) [Compound 122],20.4 nM,0.0004 nM
B2,457 nM,0.0004 nM
"[NMeY][Aib]EGTFISDYSIALDR[Aib]KQ[Aib]NFVNWLLAQSPSSGAPPPS-NH2 (not fully specified (residue 18, N-terminus)) [Compound 119]",1000 nM,0.0005 nM
B3,66.1 nM,0.0005 nM
[NMeY][Aib]EGTFISDYSIAK(2OEGgE‑C16DA)DR[Aib]AQ[Aib]NFVNWLLAQK [Compound 11],145 nM,0.0003 nM
B4,525 nM,0.0009 nM
"[NMeY][Aib]EGTFISDYSI[Aib]KDR[Aib]AQ[Aib]NFVNWLLAQRPSSKKKKKK-NH2 (not fully specified (residue 14, N-terminus)) [Compound 124]",126 nM,0.004 nM
B5,589 nM,0.0002 nM
[NMeY][Aib]EGTFISDYSIALDR[Aib]AQ[Aib]KFVNWLLAQR-NH2 (not fully specified (residue 21)) [Compound 121],5.5 nM,0.0003 nM
